The record followed here is patent US20100196361A1 (published 2010).

Where only a bound is given, the exact number is not on record here.

The target in this assay is T1, Tie1-Fc immobilized on a CM5 chip (species not stated).
T1 construct: also called immobilized Tie1-Fc
Briefly: SPR, Tie1-Fc immobilized to the CM5 sensor chip, bivalent anti-Tie1 as analyte. As to the method:
Affinity analysis of the Fab and IgGs was performed using surface plasmon resonance using a BIAcore 3000 instrument. For this analysis both dimeric (Tie1-Fc fusion protein) and monomeric (Tie1-HIS) versions of the extracellular domain of the Tie1 were used. The sensor chips used in these experiments were CM5 (dextran-coated) which allow immobilization of proteins to the chip via standard amine coupling chemistries. The concentration of flowed antibody was determined using a surface plasmon resonance based method. Using a high-density protein A sensor chip, under mass transport limited conditions, the response signal is dependent only on the concentration of the antibody in the sample under test. This approach allows a precise determination of the antibody concentration, a parameter important for accurate determination of the KD.

B1: DX-2220 (full length IgG1, germlined human anti-Tie1 antibody E3b) (antibody, V domains shown)
VH: EVQLLESGGGLVQPGGSLRLSCAASGFTFSMYGMVWVRQAPGKGLEWVSVISPSGGNTGYADSVKGRFTISRDNSKNTLYLQMNSLRAEDTAVYYCARAPRGYSYGYYYWGQGTLVTVSS
VL: DIQMTQSPSSLSASVGDRVTITCRASQGIGHYLAWYQQKPGKVPKLLIYTASTLQSGVPSRFSGSGSGTDFTLTISSLQPEDVATYYCQQFNSYPHTFGQGTRLEIKR
notes: Heavy and light chain frameworks germlined; also called E3b-IgG1; germlined E3b IgG1
In the case of B1, the Kd came to 0.2 nM and the “fold increase in affinity (against the anti-Tie1 Fab)” value was greater than 10 fold.
